Holding throughout (assay): fluorescence anisotropy
One data set deals with T1, RecE564 Y608A (Escherichia coli K12, UniProt P15032 564-866, Y608A).
T1 sequence: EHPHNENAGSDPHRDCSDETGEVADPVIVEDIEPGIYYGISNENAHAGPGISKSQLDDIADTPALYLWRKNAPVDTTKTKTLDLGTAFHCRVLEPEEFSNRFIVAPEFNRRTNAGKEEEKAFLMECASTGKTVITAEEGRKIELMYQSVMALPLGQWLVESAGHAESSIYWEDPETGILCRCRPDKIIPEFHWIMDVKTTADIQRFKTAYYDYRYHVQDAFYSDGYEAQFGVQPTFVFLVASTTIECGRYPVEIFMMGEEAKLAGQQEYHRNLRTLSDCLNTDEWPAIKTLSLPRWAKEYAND

The next data set deals with T2, RecE564 H652A (Escherichia coli K12, UniProt P15032 564-866, H652A).
T2 sequence: T1 sequence with A45Y, H89A

The next data set has as its target T3, RecE564 WT (Escherichia coli K12, UniProt P15032 564-866).
T3 sequence: T1 sequence with A45Y

Another data set deals with T4, RecE564 Y778A (Escherichia coli K12, UniProt P15032 564-866, Y778A).
T4 sequence: T1 sequence with A45Y, Y215A

Another data set addresses T5, RecE564 E657A (Escherichia coli K12, UniProt P15032 564-866, E657A).
T5 sequence: T1 sequence with A45Y, E94A

The next data set has as its target T6, RecE564 R744A (Escherichia coli K12, UniProt P15032 564-866, R744A).
T6 sequence: T1 sequence with A45Y, R181A

Kd data for 1 molecule are collected here from article PMC2688778 (Structure (London, England : 1993), 2009).

Residue numbers refer to the chain shown, from its start.

For orientation: Kd means the free concentration of one partner at which half of the binding sites on the other are occupied at equilibrium, for simple one-to-one binding. Low readings indicate tighter binding, high ones weaker binding.

B1: F25 (dsDNA)
DNA 1: TAGAGCTTAATTGCTGAATCTGGTG
DNA 2: CACCAGATTCAGCAATTAAGCTCTA
Turning to B1, the Kd in the data set with RecE564 Y608A was determined as 160 ± 10 nM; with RecE564 H652A, 130 ± 10 nM; with RecE564 WT, 70 ± 2 nM; with RecE564 Y778A it was 130 ± 20 nM; in the data set with RecE564 E657A it was 90 ± 10 nM; with RecE564 R744A it was 95 ± 8 nM.
